Results as given in publication PMC11514477.

Tests used:
[1] = biological target: macroH2A1 (endogenous; collective term for macroH2A1.1 and macroH2A1.2) (mouse (endogenous in C2C12 and MEF)); assay: proximity ligation; duolink PLA in situ in C2C12 stable knockdown lines (Scramble control, macroH2A2 knockdown); cells extracted before fixation to remove soluble Mcm2; EdU-positive cells; confocal imaging, spots per nucleus counted in FIJI
[2] = biological target: macroH2A1 (endogenous; collective term for macroH2A1.1 and macroH2A1.2) (mouse (endogenous in C2C12 and MEF)); assay: proximity ligation; duolink PLA in situ in control C2C12 cells; high-content screening microscopy (Operetta), nuclear spots of the full cell population counted with Harmony

macroH2A1 (endogenous; collective term for macroH2A1.1 and macroH2A1.2) (mouse (endogenous in C2C12 and MEF)), sequence (Q9QZQ8 whole entry): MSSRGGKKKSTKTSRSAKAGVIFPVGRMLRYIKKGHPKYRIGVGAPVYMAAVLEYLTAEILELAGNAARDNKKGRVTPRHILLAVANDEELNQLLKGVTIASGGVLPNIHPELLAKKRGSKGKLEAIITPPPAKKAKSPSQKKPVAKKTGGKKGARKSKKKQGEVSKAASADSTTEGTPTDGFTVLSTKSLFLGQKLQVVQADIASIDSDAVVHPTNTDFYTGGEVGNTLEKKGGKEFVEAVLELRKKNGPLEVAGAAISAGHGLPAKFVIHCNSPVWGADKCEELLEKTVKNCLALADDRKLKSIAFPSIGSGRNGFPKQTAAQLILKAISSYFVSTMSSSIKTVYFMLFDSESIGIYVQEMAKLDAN

- PLA spots per nucleus (control Scramble cells) (spots per nucleus) [1]: 19.8
- PLA spots per nucleus (macroH2A2 depleted cells) (spots per nucleus) [1]: 18.2
- PLA spots per nucleus (spots per nucleus) [2]: 15.1
Substance: Mcm2 (subunit of the Mcm DNA helicase complex) (from UniProt P97310 1-904) (natural protein)
